Experimental data from PMC9293779, “Elucidation of binding preferences of YEATS domains to site-specific acetylated nucleosome core particles” (The Journal of Biological Chemistry, 2022).
Ends that are not written are not given here.

T1: GST-fused AF9-YEATS domain (peptide array) (human, UniProt P42568 1-138)
T1 construct: GST follows the N-terminal polyhistidine tag; source: purified (HisTrap HP, Superdex 200); not shown: GST, N-terminal, kept
T1 sequence (looked up): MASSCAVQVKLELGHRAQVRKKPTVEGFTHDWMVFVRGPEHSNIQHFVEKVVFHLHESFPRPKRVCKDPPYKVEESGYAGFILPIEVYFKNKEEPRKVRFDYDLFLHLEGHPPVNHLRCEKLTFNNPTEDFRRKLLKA

T2: GST-fused ENL-YEATS domain (peptide array) (human, UniProt Q03111 1-138)
T2 construct: GST follows the N-terminal polyhistidine tag; source: purified (HisTrap HP, Superdex 200); not shown: GST, N-terminal, kept
T2 sequence (looked up): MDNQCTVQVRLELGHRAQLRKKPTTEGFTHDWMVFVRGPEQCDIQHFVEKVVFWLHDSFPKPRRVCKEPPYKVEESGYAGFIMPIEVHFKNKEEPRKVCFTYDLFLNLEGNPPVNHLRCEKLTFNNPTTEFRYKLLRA

T3: AF9-YEATS domain (residues 1–138) for X-ray analysis and ITC (human, UniProt P42568 1-138)
T3 construct: AF9 YEATS domain, human, residues 1–138; cloned in the pCR2.1 vector encoding GST and the polyhistidine tag; source: purified (HisTrap HP, Superdex 200)
T3 sequence (looked up): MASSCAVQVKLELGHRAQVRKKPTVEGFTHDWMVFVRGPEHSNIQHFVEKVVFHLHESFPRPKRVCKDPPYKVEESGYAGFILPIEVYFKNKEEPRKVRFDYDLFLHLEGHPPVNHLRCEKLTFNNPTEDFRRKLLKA


What was measured:
Conditions in all cases: both partners purified
[1] = molecular target: T1, GST-fused AF9-YEATS domain (peptide …); test: peptide or protein array; MODified Histone Peptide Array (Active Motif); 10 μM GST-fused YEATS domain, 4 °C overnight; 50 mM Tris-HCl pH 7.6, 250 mM NaCl, 0.1% NP-40, 10% glycerol; detected with anti-GST
[2] = molecular target: T2, GST-fused ENL-YEATS domain (peptide …); test: as above
[3] = molecular target: T3, AF9-YEATS domain (residues 1–138) for …; test: ITC; protein (100 μM) in the cell, peptide (1 mM) in the syringe; 15 °C; 20 mM Tris-HCl pH 7.6, 500 mM NaCl; single binding site model
[4] = molecular target: T3, AF9-YEATS domain (residues 1–138) for …; test: crystal structure; sitting-drop vapor diffusion at 20 °C; AF9-YEATS with diacetylated H4 peptide; space group P1, two AF9-YEATS molecules in the asymmetric unit

binding result [1] | binding result [2] | Kd [3] [µM] | binding result [4] | Binder
– | – | 5.8 | – | ARTK(Ac)QTARK(Ac)STGGKAPRKQ (peptide, UniProt P68431 2-20, looked up, histone H3, residues 1–19) [K4/K9-diacetylated H3 (1–19) peptide]
– | – | 8.5 | – | ARTKQTARKSTGGKAPRKQ (peptide, UniProt P68431 2-20, looked up, acetyl-lysine at K9 and K14, histone H3, residues 1–19) [K9/K14-diacetylated H3 (1–19) peptide]
– | – | – | binds | GKGGK(Ac)GLGK(Ac)GGAK (peptide, UniProt P62805 5-17, looked up, histone H4, residues 4–16; also called H4K8ac/K12ac peptide; K8/K12-diacetylated H4 peptide) [H4 (4–16) K8ac/K12ac peptide]

The next lines start with the binder.

Binder | binding result [1] | binding result [2] | Kd [3] [µM] | binding result [4]
SGRGKGGKGLGKGGAKRHR (peptide, UniProt P62805 2-20, looked up, acetyl-lysine at K5 and K8, histone H4, residues 1–19; source: bought: Active Motif MODified Histone Peptide Array) [H4 (1–19) tail peptide diacetylated at K5/K8 (MODified Histone Peptide Array)] | binds | binds | – | –
SGRGK(Ac)GGK(Ac)GLGK (peptide, UniProt P62805 2-13, looked up, histone H4, residues 1–12; also called H4K5ac/K8ac peptide; K5/K8-diacetylated H4 peptide) [H4 (1–12) K5ac/K8ac peptide] | – | – | – | binds
SGRGKGGKGLGKGGAKRHR (peptide, UniProt P62805 2-20, looked up, acetyl-lysine at K5, K8, K12 and K16, histone H4, residues 1–19; source: bought: Active Motif MODified Histone Peptide Array) [H4 (1–19) tail peptide tetra-acetylated at K5/K8/K12/K16 (MODified Histone Peptide Array)] | binds | binds | – | –
